Source: patent EP4667483A1 (JCR Pharmaceuticals Co., Ltd., dated 2024)
Numbered stars: 1 amine (or outer) side, 2 acyl side, 3 side chain; on linkers, the order of the positions; unused ones are H or OH. Bridge positions count the residues as written; N and C are the ends. Square brackets hold non-standard residues; d marks the D form. * marks the point of attachment. F4aao = 4-(carboxymethoxy)-L-phenylalanine, O=C([C@H](Cc1ccc(OCC(=O)[*:3])cc1)N[*:1])[*:2]; X4 = 4‑(carboxymethyl)piperazine‑1‑carbonyl, O=C(O)CN1CCN(C(=O)*)CC1; NH(1-deoxy-D-glucityl) = OC[C@@H](O)[C@@H](O)[C@H](O)[C@@H](O)CN*; PEG4c = amino-tetraoxa (PEG4) carboxylic acid spacer; Phe(3-COOH) = N[C@@H](Cc1cccc(C(=O)O)c1)C(=O)O; NMePhe(3-Cl) = CN[C@@H](Cc1cccc(Cl)c1)C(=O)O; Piperazinyl(4-CH2COOH) = O=C(O)CN1CCN(*)CC1; NMeY = CN[C@@H](Cc1ccc(O)cc1)C(=O)O

Legend:
[1] = target: T1, human transferrin receptor (hTfR) (human, UniProt P02786 89-760); assay: SPR, Biacore T200, hTfR captured by anti-His antibody on CM3 chip, pH 7.4
T1 construct: also called human TfR; TfR1
T1 sequence (P02786 89-760 limits assumed): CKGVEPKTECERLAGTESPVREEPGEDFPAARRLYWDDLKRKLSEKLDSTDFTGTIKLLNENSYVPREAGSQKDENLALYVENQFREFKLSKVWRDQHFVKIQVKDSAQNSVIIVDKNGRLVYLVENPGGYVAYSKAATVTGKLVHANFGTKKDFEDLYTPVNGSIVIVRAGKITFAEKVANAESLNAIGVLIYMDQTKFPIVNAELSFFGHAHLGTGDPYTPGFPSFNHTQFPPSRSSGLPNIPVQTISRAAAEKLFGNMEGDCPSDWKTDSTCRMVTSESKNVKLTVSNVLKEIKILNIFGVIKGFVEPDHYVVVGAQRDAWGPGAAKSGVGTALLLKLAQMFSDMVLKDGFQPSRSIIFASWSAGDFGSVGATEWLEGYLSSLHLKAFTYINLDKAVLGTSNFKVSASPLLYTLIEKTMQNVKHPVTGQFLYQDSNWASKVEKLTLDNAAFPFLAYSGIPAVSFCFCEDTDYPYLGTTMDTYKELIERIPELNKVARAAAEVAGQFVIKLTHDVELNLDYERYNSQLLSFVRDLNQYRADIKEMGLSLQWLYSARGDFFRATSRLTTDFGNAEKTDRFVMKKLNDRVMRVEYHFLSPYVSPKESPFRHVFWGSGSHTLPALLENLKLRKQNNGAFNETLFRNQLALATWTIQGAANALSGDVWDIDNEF

[2] = target: T1, human transferrin receptor (hTfR); assay: SPR; ratio of koff at pH 6.0 to koff at pH 7.4
[3] = target: T1, human transferrin receptor (hTfR); assay: SPR, Biacore T200, hTfR immobilised on NTA chip, pH 6.0
[4] = target: T1, human transferrin receptor (hTfR); assay: SPR; ratio of KD at pH 6.0 to KD at pH 7.4
[5] = target: T2, human transferrin receptor (hTfR) (human, UniProt P02786 89-760); assay: SPR, pH 6.0
T2 construct: a His tag is implied by the NTA chip and the anti-His capture; also called human TfR; TfR1
T2 sequence (P02786 89-760 limits assumed): as above

[6] = target: T2, human transferrin receptor (hTfR); assay: SPR, pH 7.4
[7] = target: T2, human transferrin receptor (hTfR); assay: SPR, pH 6.0; remark: listed apart in the source
[8] = target: T2, human transferrin receptor (hTfR); assay: SPR, pH 7.4; remark: listed apart in the source
[9] = target: T2, human transferrin receptor (hTfR); assay: SPR, KD pH 6.0 / KD pH 7.4
[10] = target: T2, human transferrin receptor (hTfR); assay: SPR, koff pH 6.0 / koff pH 7.4
[11] = target: T1, human transferrin receptor (hTfR); assay: SPR, Biacore T200, hTfR immobilised on NTA chip, pH 6.0; remark: listed apart in the source
[12] = target: T1, human transferrin receptor (hTfR); assay: SPR; ratio of koff at pH 6.0 to koff at pH 7.4; remark: listed apart in the source
[13] = target: T1, human transferrin receptor (hTfR); assay: SPR; ratio of KD at pH 6.0 to KD at pH 7.4; remark: listed apart in the source
[14] = target: T1, human transferrin receptor (hTfR); assay: SPR, Biacore T200, hTfR captured by anti-His antibody on CM3 chip, pH 7.4; remark: listed apart in the source
[15] = target: T3, human transferrin receptor (hTfR) (human, UniProt P02786 89-760); assay: SPR, Biacore T200, pH 7.4, hTfR captured by anti-His antibody on CM3 chip, single-cycle kinetics
T3 construct: also called human TfR; TfR1
T3 sequence (P02786 89-760 limits assumed): as above

B1: 894_0591 (SEQ ID No. 117) (peptide)
peptide: AVXVXNYYXIKRYXC
modifications: not fully specified; MeF at 3; MeW at 5; Eva at 9; MeY at 14; cyclic: chloroacetylated N-terminal Ala 1 joined to Cys 15; linker PEG4c on C-terminus
notes: As printed: A-V-MeF-V-MeW-N-Y-Y-Eva-I-K-R-Y-MeY-C, linker PEG4c
Kd [1]: 7.64 nM | dependency koff pH6.0/7.4 [2]: 3.29 | Kd [3]: 13.8 nM | dependency KD pH6.0/7.4 [4]: 1.81

B2: 894_0610 (SEQ ID NO: 61) (peptide)
peptide: AVXVXNYYIIKRYXC
modifications: 3 MeF3C; 5 3Imp; 14 MeY; chloroacetyl-Ala1 cyclised to Cys15; linker PEG4c after Cys15; terminus -NH2
Kd [5]: 7.47 nM | Kd [6]: 0.861 nM

B3: 894_3434 (SEQ ID NO: 64) (peptide)
peptide: AVXVWNYXIIRRYXC
modifications: 3 MeF; 8 F4aao(PEG8Me); 14 MeY; chloroacetyl-Ala1 cyclised to Cys15; linker G-KN3 after Cys15; terminus -NH2
notes: The linker G-KN3 (Gly, N6-diazo-L-lysine) follows Cys15; whether the listing entry holds these two residues cannot be seen here
Kd [5]: 32.3 nM | Kd [6]: 8.74 nM

{CH2CO}-AV[NMePhe(3-Cl)]VWNY[F4aao](NH(1-deoxy-D-glucityl))IIE(NH(1-deoxy-D-glucityl))QF[NMeY]C-{PEG4c-NH2} (thioether N-15) [894_0512 (SEQ ID NO: 39)]
Kd [7]: 12.4 nM | Kd [8]: 1.48 nM | dependency KD pH6.0/7.4 [9]: 8.37 | dependency koff pH6.0/7.4 [10]: 25.6

B4: 894_0531 (SEQ ID No. 81) (peptide)
peptide: AVXVWNYXIIQRXXC
modifications: MeF3C at 3; F4OMe at 8; Eva at 9; F3COO at 13; MeF3COO at 14; cyclic: chloroacetylated N-terminal Ala 1 joined to Cys 15; linker PEG4c on C-terminus
notes: As printed: A-V-MeF3C-V-W-N-Y-F4OMe-Eva-I-Q-R-F3COO-MeF3COO-C, linker PEG4c
Kd [11]: 9.19 nM | dependency koff pH6.0/7.4 [12]: 13.5 | dependency KD pH6.0/7.4 [13]: 4.91 | Kd [14]: 1.87 nM

{CH2CO}-AV[NMePhe(3-Cl)]VWNY[F4aao](Piperazinyl(4-CH2COOH))IIK(X4)QF[NMeY]C-{PEG4c-NH2} (thioether N-15) [894_0511 (SEQ ID NO: 38)]
Kd [7]: 14.8 nM | Kd [8]: 4.75 nM | dependency KD pH6.0/7.4 [9]: 3.12 | dependency koff pH6.0/7.4 [10]: 12.5

B5: 894_3493 (SEQ ID NO: 198) (peptide)
peptide: AVXVWNRYIIRRYXC
modifications: MeF at 3; MeF4COO at 14; N-terminal Ala chloroacetylated and cyclised by thioether to Cys 15; linker G-de-de-de-ds-ds-KN3-NH2 on Cys 15 (de = D-Glu, ds = D-Ser, KN3 = azido-lysine, C-terminal amide)
notes: Cyclic peptide with linker
Kd [15]: 1040 nM

B6: 894_0530 (SEQ ID No. 80) (peptide)
peptide: AVXVWNYXIIQRXXC
modifications: MeF3C at 3; F4OMe at 8; Eva at 9; F3COO at 13; MeF4COO at 14; cyclic: chloroacetylated N-terminal Ala 1 joined to Cys 15; linker PEG4c on C-terminus
notes: As printed: A-V-MeF3C-V-W-N-Y-F4OMe-Eva-I-Q-R-F3COO-MeF4COO-C, linker PEG4c
Kd [11]: 5.73 nM | dependency koff pH6.0/7.4 [12]: 22.2 | dependency KD pH6.0/7.4 [13]: 10.8 | Kd [14]: 0.529 nM

B7: 894_0518 (SEQ ID No. 72) (peptide)
peptide: {CH2CO}-AV[NMePhe(3-Cl)]VWNY[F4aao]IIQR[Phe(3-COOH)][NMeY]C-PEG4c
modifications: thioether N-15
notes: As printed: A-V-MeF3C-V-W-N-Y-F4aao-I-I-Q-R-F3COO-MeY-C, linker PEG4c
Kd [11]: 6.32 nM | dependency koff pH6.0/7.4 [12]: 5.72 | dependency KD pH6.0/7.4 [13]: 1.89 | Kd [14]: 3.34 nM

B8: 894_0592 (SEQ ID No. 118) (peptide)
peptide: AVXVXNYYIIKRYXC
modifications: not fully specified; MeF at 3; MeW at 5; MeF4COO at 14; cyclic: chloroacetylated N-terminal Ala 1 joined to Cys 15; linker PEG4c on C-terminus
notes: As printed: A-V-MeF-V-MeW-N-Y-Y-I-I-K-R-Y-MeF4COO-C, linker PEG4c
Kd [1]: 1.11 nM | dependency koff pH6.0/7.4 [2]: 4.21 | Kd [3]: 4.31 nM | dependency KD pH6.0/7.4 [4]: 3.88

B9: 894_3495 (SEQ ID NO: 199) (peptide)
peptide: AVXVWNRYIIRRYXC
modifications: MeF at 3; MeY at 14; N-terminal Ala chloroacetylated and cyclised by thioether to Cys 15; linker G-de-de-de-ds-ds-KN3-NH2 on Cys 15 (de = D-Glu, ds = D-Ser, KN3 = azido-lysine, C-terminal amide)
notes: Cyclic peptide with linker
Kd [15]: 531 nM
